# Assay results from US20230053449A1, “DC-SIGN ANTIBODY DRUG CONJUGATES” (NOVARTIS AG, priority 2018, published 2023).
# T1: human DC-SIGN, full length, stably expressed on CHO or K562 cells (human, UniProt Q9NNX6 1-404)
# T1 construct: Also the native/transgenic human DC-SIGN on moDCs, macrophages and Tg+ mouse dendritic cells in the functional entries; also called human DC-SIGN CHO; human DC-SIGN K562
# T1 sequence: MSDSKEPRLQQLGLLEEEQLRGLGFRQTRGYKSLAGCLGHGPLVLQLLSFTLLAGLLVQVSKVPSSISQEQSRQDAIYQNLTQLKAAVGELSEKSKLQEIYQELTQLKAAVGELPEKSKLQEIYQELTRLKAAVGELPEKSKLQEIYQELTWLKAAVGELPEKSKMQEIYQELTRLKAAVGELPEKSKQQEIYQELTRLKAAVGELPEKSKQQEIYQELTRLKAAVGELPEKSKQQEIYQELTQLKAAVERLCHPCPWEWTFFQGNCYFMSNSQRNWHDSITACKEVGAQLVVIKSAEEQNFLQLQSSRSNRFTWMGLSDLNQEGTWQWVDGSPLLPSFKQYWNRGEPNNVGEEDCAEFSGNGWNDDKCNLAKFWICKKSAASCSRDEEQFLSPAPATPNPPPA
# T2: cynomolgus monkey DC-SIGN, full length, stably expressed on CHO cells (cynomolgus monkey, UniProt Q95J96 1-403 (rhesus entry))
# T2 construct: also called cyno DC-SIGN CHO
# T2 sequence: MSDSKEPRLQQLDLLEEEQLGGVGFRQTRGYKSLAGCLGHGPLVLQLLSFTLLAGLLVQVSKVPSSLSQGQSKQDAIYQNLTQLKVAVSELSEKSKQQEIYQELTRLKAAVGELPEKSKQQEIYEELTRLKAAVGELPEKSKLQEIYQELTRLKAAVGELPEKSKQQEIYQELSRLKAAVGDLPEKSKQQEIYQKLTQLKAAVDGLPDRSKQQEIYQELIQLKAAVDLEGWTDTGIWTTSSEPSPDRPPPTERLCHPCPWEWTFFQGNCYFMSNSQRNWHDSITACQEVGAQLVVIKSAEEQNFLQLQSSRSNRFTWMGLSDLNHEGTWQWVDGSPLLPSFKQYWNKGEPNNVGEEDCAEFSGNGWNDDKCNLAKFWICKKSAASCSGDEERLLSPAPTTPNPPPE
# T3: L-SIGN (Homo sapiens, UniProt Q9H2X3)
# T3 construct: expressed in transfected cells; host or cells: K562 (retroviral transduction)
# T3 sequence (Q9H2X3 1-399): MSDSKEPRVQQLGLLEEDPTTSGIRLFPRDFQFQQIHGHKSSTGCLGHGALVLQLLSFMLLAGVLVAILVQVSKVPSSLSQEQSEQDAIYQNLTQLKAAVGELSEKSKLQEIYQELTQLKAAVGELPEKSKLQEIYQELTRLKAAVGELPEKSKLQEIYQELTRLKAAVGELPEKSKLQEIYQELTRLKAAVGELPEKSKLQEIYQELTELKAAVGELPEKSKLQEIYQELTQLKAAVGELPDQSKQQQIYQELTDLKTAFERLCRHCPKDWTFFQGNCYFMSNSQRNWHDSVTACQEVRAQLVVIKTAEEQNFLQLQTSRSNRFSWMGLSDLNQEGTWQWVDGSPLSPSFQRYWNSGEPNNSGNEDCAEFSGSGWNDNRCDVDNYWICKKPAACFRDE
# B1: 1G12 Parental (antibody, V domains shown)
# VH: QVQLQQSGPGLVQPSQSLSITCTVSGFSLTNYGVHWVRQSPGKGLEWLGVIWRGESTDYNAAFMSRLSVTKDDSKSQVFFKMNSLQADDTAIYYCARNGGSSGWYFDVWGTGTTVTVSS
# VL: DIQMTQTHKFMSTSVGDRVSITCKASQDVTSAVAWYQQTPGQSPNLLIYWTSTRHTGVPDRFTGSGSGTDYTLTISSVQAEDLALYYCQQHYTTPLTFGAGTKLELK
# B2: 2B2 Hz: Humanization of Antibodies 2B2 and 1G12: variable region constructs were designed for humanization and optimization of sequences (antibody)
# heavy: QVQLVQSGAEVKKPGASVKVSCKASGYTFTNYGINWVRQAPGQRLEWMGYIYIGNDYTEYNERFKGRVTITSDTSASTAYMELSSLRSEDTAVYYCARLYYGSSLYSYAMDYWGQGTTVTVSSASTKGPSVFPLAPSSKSTSGGTAALGCLVKDYFPCPVTVSWNSGALTSGVHTFPAVLQSSGLYSLSSVVTVPSSSLGTQTYICNVNHKPSNTKVDKRVEPKSCDKTHTCPPCPAPELLGGPSVFLFPPKPKDTLMISRTPEVTCVVVAVSHEDPEVKFNWYVDGVEVHNAKTKPREEQYNSTYRVVSVLTVLHQDWLNGKEYKCKVSNKALAAPIEKTISKAKGQPREPQVYTLPPSREEMTKNQVSLTCLVKGFYPCDIAVEWESNGQPENNYKTTPPVLDSDGSFFLYSKLTVDKSRWQQGNVFSCSVMHEALHNHYTQKSLSLSPGK
# light: DIVMTQSPLSLPVTPGEPASISCRSSKSLLHSSGNTYLYWFLQKPGQSPQLLISRMSNLASGVPDRFSGSGSGTDFTLKISRVEAEDVGVYYCMQHLEYPYTFGGGTKVEIKRTVAAPSVFIFPPSDEQLKSGTASVVCLLNNFYPREAKVQWKVDNALQSGNSQESVTEQDSKDSTYSLSSTLTLSKADYEKHKVYACEVTHQGLSSPVTKSFNRGEC
# B3: 2B2 Chimeric (antibody)
# heavy: EVQLQQSGAELVRPGSSVKMSCKTSGYTFTNYGINWVKQRPGQGLEWIGYIYIGNDYTEYNERFKGKATLTSDTSSSTAHIQLNSLTSEDSAIYFCARLYYGSSLYSYAMDYWGQGTSVTVSSASTKGPSVFPLAPSSKSTSGGTAALGCLVKDYFPCPVTVSWNSGALTSGVHTFPAVLQSSGLYSLSSVVTVPSSSLGTQTYICNVNHKPSNTKVDKRVEPKSCDKTHTCPPCPAPELLGGPSVFLFPPKPKDTLMISRTPEVTCVVVAVSHEDPEVKFNWYVDGVEVHNAKTKPREEQYNSTYRVVSVLTVLHQDWLNGKEYKCKVSNKALAAPIEKTISKAKGQPREPQVYTLPPSREEMTKNQVSLTCLVKGFYPCDIAVEWESNGQPENNYKTTPPVLDSDGSFFLYSKLTVDKSRWQQGNVFSCSVMHEALHNHYTQKSLSLSPGK
# light: DIVMTQAAPSVSVTPGESVSISCRSSKSLLHSSGNTYLYWFLQRPGQSPQLLISRMSNLASGVPDRFSGSGSGTAFTLRISRVEAEDVGVYYCMQHLEYPYTFGGGTKLELKRTVAAPSVFIFPPSDEQLKSGTASVVCLLNNFYPREAKVQWKVDNALQSGNSQESVTEQDSKDSTYSLSSTLTLSKADYEKHKVYACEVTHQGLSSPVTKSFNRGEC
# Legend:
# [1] = biological target: T1, human DC-SIGN, full length, stably …; assay: flow cytometry, K562 cells expressing human DC-SIGN
# Description: (§1) The affinity of various antibodies and ADCs to DC-SIGN and its species orthologues was determined using FACS. Purified IgGs were titrated to determine EC50 values for binding to cell surface expressed DC-SIGN.
# (§2) For this purpose, human DC-SIGN expressing or cynomolgus monkey DC-SIGN expressing stable CHO cell lines or K562 expressing DC-SIGN or K562 expressing L-SIGN cell lines were checked for density and viability using VICELL (Beckman Coulter), and washed once with 4° C. PBS. Cells were stained with DAPI (0.5 ug/mL) diluted in PBS for 30 min on ice. Cells were diluted into 4° C. FACS buffer (PBS, 10 mM EDTA, 2% FBS). 125 μl of cells were seeded (10,000 cells/well) into 96-well v-bottom plates (Nunc cat #442587) and centrifuged for 4 min at 1500 rpm at 4° C. Supernatant was removed. […] Following incubation, cells were spun down (1500 rpm, 4 min, 4° C.) and washed two times with FACS buffer. A fluorophore-conjugated anti-hFc gamma-AF-647 (Southern Biotechnology) detection antibody was added at 1:400 dilution and samples were incubated for 1 h on ice in the dark.
# [2] = biological target: T1, human DC-SIGN, full length, stably …; assay: flow cytometry, CHO cells expressing human DC-SIGN
# Description: as §1, §2
# [3] = biological target: T2, cynomolgus monkey DC-SIGN, full length, …; assay: flow cytometry, CHO cells expressing cyno DC-SIGN
# Description: as §1, §2
# L-SIGN = biological target: T3, L-SIGN; assay: FACS binding to L-SIGN expressing K562 cells
# Description: as §1
# For this purpose, human DC-SIGN expressing or cynomolgus monkey DC-SIGN expressing stable CHO cell lines or K562 expressing DC-SIGN or K562 expressing L-SIGN cell lines were checked for density and viability using VICELL (Beckman Coulter), and washed once with 4° C. PBS. Cells were stained with DAPI (0.5 ug/mL) diluted in PBS for 30 min on ice. Cells were diluted into 4° C. FACS buffer (PBS, 10 mM EDTA, 2% FBS). 125 μl of cells were seeded (10,000 cells/well) into 96-well v-bottom plates (Nunc cat #442587) and centrifuged for 4 min at 1500 rpm at 4° C. Supernatant was removed. […] After the final wash, cells were resuspended in Fixative Buffer (Biolegend, 420801) and 90 μl of FACS buffer followed by readout on the flow cytometry machine (BD LSRFortessa Cell Analyzer; Cat #647177). Geometric Mean fluorescence intensity (MFI) of live, single cells was calculated in Flowjo 10.4.2 and exported into Graphpad Prism7 for EC50 determination.
# Selectivity was assessed by measuring apparent binding affinities to isogenic cell pairs engineered to overexpress DC-SIGN as well as cell lines expressing DC-SIGN paralog L-SIGN.
# [4] = Aggregation by analytical size-exclusion chromatography (AnSEC); type: physicochemical; details: conjugate with linker-payload C-5
# Description: Conjugates were profiled using analytical size-exclusion chromatography (AnSEC) on Zenix C-300 3 um 7.8×150 mm column (Sepax Technologies). Alternatively, samples were tested on a KW-803 column (TIC Cat #6960940) Aggregation was analyzed based on analytical size exclusion chromatography and reported as the % monomer based on AUC of the assigned monomer peak.
# The sample shown below in Table 20 achieved >90% conjugation efficiency and >95% purity as assessed by AnSEC. This illustrates that conjugates of the invention can be made efficiently and have favorable characteristics.
molecule,measurement,setting,value
B1,EC50,[1],0.02 µg/mL
same,EC50,[2],0.06 µg/mL
same,EC50,[3],0.07 µg/mL
B2,human L-SIGN K562 EC50,L-SIGN,>10 µg/mL
B3,% Monomer,[4]; after preparative SEC,99%
same,% Monomer,[4]; before preparative SEC,95.4%
